From patent publication US20250027068

Molecular target: pooled human IgG (human IgG1, 2, 3 and 4)

Protein | Enzyme Activity Endpoint Assay (purified): Fab'2 [ng/µL] | Enzyme Activity Endpoint Assay (purified): Fc [ng/µL] | Enzyme Activity Endpoint Assay (purified): IgG [ng/µL] | Enzyme Activity Endpoint Assay (purified): scIgG [ng/µL] | Enzyme Activity Endpoint Assay: Fab′2 [ng/µL] | Enzyme Activity Endpoint Assay: Fc [ng/µL] | Enzyme Activity Endpoint Assay: IgG [ng/µL] | Enzyme Activity Endpoint Assay: scIgG [ng/µL] | Enzyme Activity Endpoint Assay (purified): Fab′2 [ng/µL]
PRT-602 (protein) MANQEIRYSEVTPYHITSVWTKGVTPPANFTQGEDVFHAPYVANQGWYDITKTFNGKDDLLCGAATAGNMLHWWFDQNKDQIERYLEEHPEKQKINFNGEQMFDVKEAIDTKDSQTDSKLFEYFKEKAFPYLSTKHLGVFPDHVIDMFINGYRLSLTNHGPTPVKEGSKDPRGGIFDAVFTRGDQSKLLTSRHDFKEKTLKEISDLIKQELTEGKALGLSHTYANVRINHVINLWGADFDSEGNLKAIYVTDSDSNASIGMKKYYVGVNSAGKVAISAKEIEEDNIGAQVLGLFTLSTGQDIWNQTNLEHHHHHH | 543 | 375 | 0 | 212 | 543 | 375 | 0 | 212 | 
PRT-479 (protein) MITSVWTKGVTPPTDFIYGEDVLHAPYKAGQGWYDITKAFDGGDDLLCGAATAGNMLHWWFDQNKEQIENYLKKHPEKQKINFNGEQMFDVKEAIDTKDSQTNSELFNYFKEKAFPYLSTKHLGVFPDHVIDMFINGYRLSLTNHGPTPVKRQEKDPRGGIFDAVFGRGDQTKLLTNRHDLKNKTLNEISQLIKQELTEGKALGISHTYANVRINHVINLWGADFDAEGNLEAIYVTDSDSNASIGMKKYFVGVNSNGKVAISAKEIEEDNIGAQVLGLFTLSTGQKIWNKTNLEHHHHHH |  |  |  |  | 1340 | 481 | 0 | 0 | 
PRT-467 (protein) MITSVWTKGVTPPTDFIKGEDVFHAPYKAGQGWYDITKAFDGGDDLLCGAATAGNMLHWWFDQNKDQIERYLKEHPEKQKINFNGEQMFDVKEAIDTKDSQTNSELFNYFKEKAFPYLSTKHLGVFPDHVLDMFINGYRLSLTNHGPTPVKRQEKDPRGGIFDAVFGRGDQTKLLTSRHDLKNKTLNEISQLIKQELTEGKALGLSHTYANVRINHVINLWGADFDAEGNLEAIYVTDSDSNASIGMKKYFVGVNSAGKVAISAKEIKEDNIGAQVLGLFTLSTGQKIWNKTNLEHHHHHH |  |  |  |  | 685 | 374 | 57 | 375 | 
PRT-477 (protein) MVTSVWTKGVTPPTNFTYGEDVLHAPYVANQGWYDITKTFNGKDDLLCGAATAGNMLHWWFDQNKEQIENYLKKHPEKQKINFNGEQMFDVKEAIDTKDSQLDSKLFEYFKEKAFPYLSTKHLGVFPDHVIDMFINGYRLSLTNHGPTPVKRGSKDPRGGIFDAVFTRGDQSKLLTNRHDLKNKTLKEISDLIKQELTEGKALGISHTYANVRINHVINLWGADFDAEGNLEAIYVTDSDSNASIGMKKYFVGVNSNGKVAISAKEIEEDNIGAQVLGLFTLSTGQDIWNQTNLEHHHHHH |  |  |  |  | 543 | 277 | 0 | 224 | 
PRT-424 (protein) MTITSVWTKGVTPPTPEDFRYNNEDVLHAPYVANQGWYDITKTFDGKDNLLCGAATAGNMLHWWFDQNKEEIERYLKKHPEKQKIIFNNQELFDVKAAIDTKDSQTNSKLFNYFRDKAFPNLSARQLGVMPDLVLDMFINGYYLNLGKTQSTDVNRPYQDKDKRGGIFDAVFTRGDQTTLLTARHDLKNKGLNEISDLIKQELTEGKALALSHTYANVRINHVINLWGADFDAEGNLIAIYVTDSDANASIGMKKYFVGVNANGKVAISAKKIEGDNIGAQVLGLFTLSLGQDIWQKLS |  |  |  |  | 618 | 348 | 88 | 0 | 
PRT-442 (protein) MSQTEDSESLQRLRDIEDFQAEKKKQNVVYTKWLDGVDVKDHDFRKIVDGNIAYYATPLLNGRGFYDINKDFNRDNDKCAAAVAANMFHYWLDRNRDNVDRFLRQNPEKHGIIELPDGQLKLSDFLNTYESDDGYRDKSKLFDFISNNFNGPVWTDKLLDNYINGYAYNYKYGRTIEDPTKNTSKINFFKEVFNEKILTNNHSIRNQNEFSVLLSEALYTGKAIGLSYGPAGLRHSLGHIISVWGADLDADGNVVAIYVTDSDDKKLTIGDERVGLKRYKISTDDEGRLRLTAYEETHNTGGQIRGLWTLDTGKQAWADYFDKTEQTGTDQAEQ |  |  |  |  | 18 | 169 | 680 | 381 | 
PRT-433 (protein) MSQTEDSESLQRLRDIEDFQAEKKKQNVVYTKWLDGVDVKDHDFRKIVDGNIAYYATPLLNGRGFYDINKDFNRDSDKCAAAVAANMFHYWLDRNRDNVDRFLRQNPEKHGIIELPDGQLKLSDFLNTYESDDGYRDKSKLFDFISNNFNGPVWTDKLLDNYINGYAYNYKYGRTIEDPTKNTSKINFFKEVFNEKILTNNHSIRNQNEFSVLLIEALYTGKAIGLSYGPAGLRHSLGHIISVWGADLDADGNVVAIYVTDSDDKKLTIGDERVGLKRYKISTDDEGRLRLTAYEETHNTGGQIRGLWTLDTGKQAWADYFDKTEQTGTDQAEQ |  | 489 | 0 | 224 | 575 | 489 | 0 | 224 | 575
PRT-434 (protein) MSQTEDSESLQRLRDIEDFQAEKKKQNVVYTKWLDGVDVKDHDFRKIVDGNIAYYATPLLNGRGFYDINKDFNRDSDKCAAAVAANMFHYWLDRNRDNVDRFLRQNPEKHGIIELPDGQLKLSDFLNTYESDDGYRDKSKLFDFISNNFNGPVWTDKLLDNYINGYAYNYKYGRTIEDPTKNTSKINFFKEVFNEKILTNNHSIRNQNEFSVLLSEALYTGKAIGLSYGPAGLRHGLGHIISVWGADLDADGNVVAIYVTDSDDKKLTIGDERVGLKRYKISTDDEGRLRLTAYEETHNTGGQIRGLWTLDTGKQAWADYFDKTEQTGTDQAEQ |  | 314 | 0 | 234 | 567 | 314 | 0 | 234 | 567
PRT-598 (protein) MANQEIRYSEETPSTITSVWTKGVTPPTDFIQNEDVLHAPYIANQGWYDITKTFNGKDDLLCGAATAGNMLHWWFDQNKEQIENYLKKHPEKQKINFNGEQMFDVKEAIDTKDSQTDSALFEYFKDKAFPYLSTKHLGVFPDHVIDMFINGYRLSLTNHGPTPVKRGTKDPRGGIFDAVFTRGDQSKLLTSRHDFKEKTLNEISDLIKQELTEGKALGLSHTYANVRINHVINLWGADFNAEGNLEAIYVTDSDSNASIGMKKYFVGVNSAGKVAISAKEIEGDNIGAQVLGLFTLSTGQDIWNQTNLEHHHHHH | 567 | 172 | 0 | 213 | 567 | 172 | 0 | 213 | 
